Assay results: the supplement of paper PMC6757056
± gives the standard deviation of the averaged measurements.

B1: library; a variant is named by its letters at N, in order (parent)
chain: GCUGUCACCGGUGCUUGGUACGUUAUAUUCAGCCGGUCUGAUGAGUCUNNNNNNAGACGAAACAGC

How the values were obtained:
[1] = variants of: B1; assay: FACS-Seq fitted mean relative fluorescence mCherry/BFP without ligand (log10 relative fluorescence); HEK293T overexpressing SLC46A1; higher = higher reporter protein expression; conditions: without (6R,S)-folinic acid; ligand present: no
Procedure: (§1)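 Hammerhead (sTRSV) ribozyme switch libraries with a ligand aptamer grafted on stem I and a randomized N4-6 loop II, cloned into the 3' UTR of mCherry and transiently transfected into HEK293T cells; RNA-Seq 72 h post transfection with ligand added 1 h before transfection; RNA read count / plasmid DNA read count normalized to the non-cleaving sTRSVctl (x100), log10; sequences with >100 DNA reads. FACS-Seq: lentiviral library sorted into 6 bins after 48 h ligand, log-normal fit mean of mCherry/BFP scaled to controls. Printed sequences are partial switch sequences.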

[2] = variants of: B1; assay: normalized RNA/DNA level without ligand (relative to sTRSVctl = 100) (log10 (% of sTRSVctl)); HEK293T overexpressing SLC46A1; higher = less ribozyme self-cleavage, higher mRNA level; conditions: without (6R,S)-folinic acid; ligand present: no
Procedure: as §1

[3] = variants of: B1; assay: FACS-Seq fitted mean relative fluorescence mCherry/BFP with ligand (log10 relative fluorescence); HEK293T overexpressing SLC46A1; ligand concentration (+) FACS-Seq: 6 mM; higher = higher reporter protein expression; conditions: with (6R,S)-folinic acid; ligand present: yes
Procedure: as §1

[4] = variants of: B1; assay: normalized RNA/DNA level with ligand (relative to sTRSVctl = 100) (log10 (% of sTRSVctl)); HEK293T overexpressing SLC46A1; ligand concentration (+) RNA-Seq: 6 mM; higher = less ribozyme self-cleavage, higher mRNA level; conditions: with (6R,S)-folinic acid; ligand present: yes
Procedure: as §1

Variant: GCUGUCACCGGUGCUUGGUACGUUAUAUUCAGCCGGUCUGAUGAGUCUCAAGCAAGACGAAACAGC [CAAGCA]
- FACS-Seq fitted mean (log10) [1]: 0.195 ± 0.065
- normalized RNA/DNA level without ligand (log10) [2]: 2.018 ± 0.012
- FACS-Seq fitted mean (log10) [3]: 0.434 ± 0.14
- normalized RNA/DNA level with ligand (log10) [4]: 2.03 ± 0.032

Variant: GCUGUCACCGGUGCUUGGUACGUUAUAUUCAGCCGGUCUGAUGAGUCUGAAGCAAGACGAAACAGC [GAAGCA]
- FACS-Seq fitted mean (log10) [1]: 0.272 ± 0.031
- normalized RNA/DNA level without ligand (log10) [2]: 1.967 ± 0.015
- FACS-Seq fitted mean (log10) [3]: 0.486 ± 0.021
- normalized RNA/DNA level with ligand (log10) [4]: 2 ± 0.024

Variant: GCUGUCACCGGUGCUUGGUACGUUAUAUUCAGCCGGUCUGAUGAGUCUUAAGCAAGACGAAACAGC [UAAGCA]
- FACS-Seq fitted mean (log10) [1]: 0.463 ± 0.0091
- normalized RNA/DNA level without ligand (log10) [2]: 1.9355 ± 0.00085
- FACS-Seq fitted mean (log10) [3]: 0.377 ± 0.12
- normalized RNA/DNA level with ligand (log10) [4]: 1.99 ± 0.021

Variant: GCUGUCACCGGUGCUUGGUACGUUAUAUUCAGCCGGUCUGAUGAGUCUAAAGCAAGACGAAACAGC [AAAGCA]
- FACS-Seq fitted mean (log10) [1]: 0.3689 ± 0.0015
- normalized RNA/DNA level without ligand (log10) [2]: 1.975 ± 0.0052
- FACS-Seq fitted mean (log10) [3]: 0.575 ± 0.35
- normalized RNA/DNA level with ligand (log10) [4]: 1.98 ± 0.044

Variant: GCUGUCACCGGUGCUUGGUACGUUAUAUUCAGCCGGUCUGAUGAGUCUGAAGCGAGACGAAACAGC [GAAGCG]
- FACS-Seq fitted mean (log10) [1]: 0.117 ± 0.13
- normalized RNA/DNA level without ligand (log10) [2]: 1.929 ± 0.012
- FACS-Seq fitted mean (log10) [3]: 0.259 ± 0.065
- normalized RNA/DNA level with ligand (log10) [4]: 2.02 ± 0.034

Variant: GCUGUCACCGGUGCUUGGUACGUUAUAUUCAGCCGGUCUGAUGAGUCUUAAGCGAGACGAAACAGC [UAAGCG]
- FACS-Seq fitted mean (log10) [1]: 0.384 ± 0.026
- normalized RNA/DNA level without ligand (log10) [2]: 1.736 ± 0.0051
- FACS-Seq fitted mean (log10) [3]: 0.777 ± 0.031
- normalized RNA/DNA level with ligand (log10) [4]: 1.96 ± 0.045

Variant: GCUGUCACCGGUGCUUGGUACGUUAUAUUCAGCCGGUCUGAUGAGUCUAAAGCGAGACGAAACAGC [AAAGCG]
- FACS-Seq fitted mean (log10) [1]: 0.0389 ± 0.01
- normalized RNA/DNA level without ligand (log10) [2]: 1.743 ± 0.0089
- FACS-Seq fitted mean (log10) [3]: 0.352 ± 0.079
- normalized RNA/DNA level with ligand (log10) [4]: 1.989 ± 0.013

Variant: GCUGUCACCGGUGCUUGGUACGUUAUAUUCAGCCGGUCUGAUGAGUCUCAAGCUAGACGAAACAGC [CAAGCU]
- FACS-Seq fitted mean (log10) [1]: 0.363 ± 0.071
- normalized RNA/DNA level without ligand (log10) [2]: 2.047 ± 0.0037
- FACS-Seq fitted mean (log10) [3]: 0.443 ± 0.099
- normalized RNA/DNA level with ligand (log10) [4]: 2.05 ± 0.043

Variant: GCUGUCACCGGUGCUUGGUACGUUAUAUUCAGCCGGUCUGAUGAGUCUGAAGCUAGACGAAACAGC [GAAGCU]
- FACS-Seq fitted mean (log10) [1]: 0.0826 ± 0.071
- normalized RNA/DNA level without ligand (log10) [2]: 2.018 ± 0.015
- FACS-Seq fitted mean (log10) [3]: 0.0358 ± 0.15
- normalized RNA/DNA level with ligand (log10) [4]: 2.04 ± 0.022

Variant: GCUGUCACCGGUGCUUGGUACGUUAUAUUCAGCCGGUCUGAUGAGUCUUAAGCUAGACGAAACAGC [UAAGCU]
- FACS-Seq fitted mean (log10) [1]: 0.334 ± 0.089
- normalized RNA/DNA level without ligand (log10) [2]: 1.992 ± 0.014
- FACS-Seq fitted mean (log10) [3]: 0.436 ± 0.13
- normalized RNA/DNA level with ligand (log10) [4]: 2.021 ± 0.0075

Variant: GCUGUCACCGGUGCUUGGUACGUUAUAUUCAGCCGGUCUGAUGAGUCUCAAGGAAGACGAAACAGC [CAAGGA]
- FACS-Seq fitted mean (log10) [1]: 0.62 ± 0.052
- normalized RNA/DNA level without ligand (log10) [2]: 1.981 ± 0.019
- FACS-Seq fitted mean (log10) [3]: 0.722 ± 0.17
- normalized RNA/DNA level with ligand (log10) [4]: 1.99 ± 0.052

Variant: GCUGUCACCGGUGCUUGGUACGUUAUAUUCAGCCGGUCUGAUGAGUCUUAAGGAAGACGAAACAGC [UAAGGA]
- FACS-Seq fitted mean (log10) [1]: 0.0731 ± 0.084
- normalized RNA/DNA level without ligand (log10) [2]: 1.85 ± 0.026
- FACS-Seq fitted mean (log10) [3]: 0.217 ± 0.0071
- normalized RNA/DNA level with ligand (log10) [4]: 1.997 ± 0.018

Variant: GCUGUCACCGGUGCUUGGUACGUUAUAUUCAGCCGGUCUGAUGAGUCUAAAGGAAGACGAAACAGC [AAAGGA]
- FACS-Seq fitted mean (log10) [1]: 0.158 ± 0.1
- normalized RNA/DNA level without ligand (log10) [2]: 1.909 ± 0.007
- FACS-Seq fitted mean (log10) [3]: 0.355 ± 0.16
- normalized RNA/DNA level with ligand (log10) [4]: 2 ± 0.027

Variant: GCUGUCACCGGUGCUUGGUACGUUAUAUUCAGCCGGUCUGAUGAGUCUGAAGGCAGACGAAACAGC [GAAGGC]
- FACS-Seq fitted mean (log10) [1]: 0.492 ± 0.035
- normalized RNA/DNA level without ligand (log10) [2]: 1.951 ± 0.006
- FACS-Seq fitted mean (log10) [3]: 0.635 ± 0.019
- normalized RNA/DNA level with ligand (log10) [4]: 2.009 ± 0.0033

Variant: GCUGUCACCGGUGCUUGGUACGUUAUAUUCAGCCGGUCUGAUGAGUCUAAAGGCAGACGAAACAGC [AAAGGC]
- FACS-Seq fitted mean (log10) [1]: 0.486 ± 0.051
- normalized RNA/DNA level without ligand (log10) [2]: 2.041 ± 0.0056
- FACS-Seq fitted mean (log10) [3]: 0.631 ± 0.18
- normalized RNA/DNA level with ligand (log10) [4]: 2.04 ± 0.034

Variant: GCUGUCACCGGUGCUUGGUACGUUAUAUUCAGCCGGUCUGAUGAGUCUCAAGGGAGACGAAACAGC [CAAGGG]
- FACS-Seq fitted mean (log10) [1]: -0.428 ± 0.17
- normalized RNA/DNA level without ligand (log10) [2]: 1.88 ± 0.02
- FACS-Seq fitted mean (log10) [3]: -0.164 ± 0.057
- normalized RNA/DNA level with ligand (log10) [4]: 1.99 ± 0.013

Variant: GCUGUCACCGGUGCUUGGUACGUUAUAUUCAGCCGGUCUGAUGAGUCUUAAGGGAGACGAAACAGC [UAAGGG]
- FACS-Seq fitted mean (log10) [1]: -0.0665 ± 0.0016
- normalized RNA/DNA level without ligand (log10) [2]: 1.601 ± 0.002
- FACS-Seq fitted mean (log10) [3]: 0.263 ± 0.16
- normalized RNA/DNA level with ligand (log10) [4]: 1.92 ± 0.025

Variant: GCUGUCACCGGUGCUUGGUACGUUAUAUUCAGCCGGUCUGAUGAGUCUAAAGGGAGACGAAACAGC [AAAGGG]
- FACS-Seq fitted mean (log10) [1]: 0.172 ± 0.033
- normalized RNA/DNA level without ligand (log10) [2]: 1.671 ± 0.016
- FACS-Seq fitted mean (log10) [3]: 0.631 ± 0.087
- normalized RNA/DNA level with ligand (log10) [4]: 1.97 ± 0.049

Variant: GCUGUCACCGGUGCUUGGUACGUUAUAUUCAGCCGGUCUGAUGAGUCUGAAGUAAGACGAAACAGC [GAAGUA]
- FACS-Seq fitted mean (log10) [1]: 0.299 ± 0.013
- normalized RNA/DNA level without ligand (log10) [2]: 1.966 ± 0.0082
- FACS-Seq fitted mean (log10) [3]: 0.331 ± 0.045
- normalized RNA/DNA level with ligand (log10) [4]: 2.014 ± 0.019

Variant: GCUGUCACCGGUGCUUGGUACGUUAUAUUCAGCCGGUCUGAUGAGUCUUAAGUCAGACGAAACAGC [UAAGUC]
- FACS-Seq fitted mean (log10) [1]: 0.228 ± 0.093
- normalized RNA/DNA level without ligand (log10) [2]: 2.0619 ± 0.00099
- FACS-Seq fitted mean (log10) [3]: 0.173 ± 0.12
- normalized RNA/DNA level with ligand (log10) [4]: 2.038 ± 0.0091

Variant: GCUGUCACCGGUGCUUGGUACGUUAUAUUCAGCCGGUCUGAUGAGUCUAAAGUCAGACGAAACAGC [AAAGUC]
- FACS-Seq fitted mean (log10) [1]: 0.0964 ± 0.057
- normalized RNA/DNA level without ligand (log10) [2]: 2.066 ± 0.014
- FACS-Seq fitted mean (log10) [3]: 0.235 ± 0.08
- normalized RNA/DNA level with ligand (log10) [4]: 2.03 ± 0.047
